Laboratory results taken from paper doi:10.1101/2019.12.12.872739.

Target: LecB-biotin (Pseudomonas aeruginosa lectin LecB, biotinylated) (Pseudomonas aeruginosa) (UniProt Q9HYN5)
Assay: pull-down

“β1-integrin (glycosylated, endogenous in MDCK cells) (receptor)” showed a percent of total β1-integrin extracted by LecB-biotin of 75%.
